Measured values as given in patent US20210380680A1 (ZLLP, published 2021).

Assays:
[1] = biological target: T1, CLDN18.2 endogenously expressed on SNU620 gastric cancer cells (UniProt P56856-2 1-261, limits assumed); experiment: FACS Exp. 3, SNU620 cells
T1 construct: whole, on cells; also called SU620

[2] = biological target: T2, human Claudin 18.2 (CLDN18.2) (human, UniProt P56856-2 1-261); experiment: FACS Exp. 1, MFI ratio CHO-18.2 over CHO-18.1
T2 construct: whole, on cells; recombinantly expressed on CHO, HEK293, NCI-N87, NUGC4 or PANC-1 cells; also called CHO-CLDN18.2

[3] = biological target: T2, human Claudin 18.2 (CLDN18.2); experiment: FACS Exp. 2, MFI ratio CHO-18.2 over CHO-18.1
[4] = biological target: T2, human Claudin 18.2 (CLDN18.2); experiment: cell-based or functional assay
[5] = biological target: T2, human Claudin 18.2 (CLDN18.2); experiment: cell-based or functional assay; remark: listed apart in the source
[6] = biological target: T2, human Claudin 18.2 (CLDN18.2); experiment: FACS on CHO-CLDN18.2 cells

MFI_SNU620 (@30 ug/ml) [1] [MFI] | MFI_CHO-18.2/CHO-18.1 (@30 ug/ml) [2] | MFI_CHO-18.2/CHO-18.1 (@30 ug/ml) [3] | EC50 [6] [nM] | Binder | also measured
1080 | 1240 | 2540 |  | hz282-4 (antibody, V domains shown, humanized IgG; constant regions not specified) VH: QVQLQESGPGLVKPSETLSLTCTVAGFSLTSYNVYWIRQPPGKGLEWIGVIWNTGATRYNSALKSRVTISKDTSKSQVSLKLSSVTAADTAVYYCARDSAMPAIPFAYWGQGTLVTVSS VL: DIVMTQSPDSLAVSLGERATINCKSSQSLFGSVRQKNYLAWYQQKPGQPPKLLIYLASTRESGVPDRFSGSGSGTDFTLTISSLQAEDVAVYYCQQYYDIPWTFGGGTKVEIK | 
1150 | 1100 | 1670 |  | hz282-3 (antibody, V domains shown, humanized IgG; constant regions not specified) VH: QVQLQESGPGLVKPSETLSLTCTVSGFSLTSYNVYWIRQPPGKGLEWIGVIWNTGATRYNSALKSRVTISKDTSKSQVSLKLSSVTAADTAVYYCARDSAMPAIPFAYWGQGTLVTVSS VL: DIVMTQSPDSLAVSLGERATINCKSSQSLFGSVRQKNYLAWYQQKPGQPPKLLIYLASTRESGVPDRFSGSGSGTDFTLTISSLQAEDVAVYYCQQYYDIPWTFGGGTKVEIK | 
1310 | 808 | 1500 |  | hz282-10 (antibody, V domains shown, humanized IgG; constant regions not specified) VH: QVQLQESGPGLVKPSETLSLTCTVSGFSLTSYNVYWIRQPPGKGLEWIGVIWNTGATRYNSALKSRVTISKDTSKNQVSLKLSSVTAADTAVYYCARDSAMPAIPFAYWGQGTLVTVSS VL: DIQMTQSPSSLSASVGDRVTITCKSSQSLFGSVRQKNYLAWYQQKPGKAPKLLIYLASTRESGVPSRFSGSGSGTDFTLTISSLQPEDFATYYCQQYYDIPWTFGGGTKVEIK | 
1190 | 960 | 1610 |  | hz282-8 (antibody, V domains shown, humanized IgG; constant regions not specified) VH: QVQLQESGPGLVKPSETLSLTCTVAGFSLTSYNVYWIRQPPGKGLEWIGVIWNTGATRYNSALKSRVTISKDTSKSQVSLKLSSVTAADTAVYYCARDSAMPAIPFAYWGQGTLVTVSS VL: DIVMTQSPDSLAVSLGERATINCKSSQSLFGSVRQKNYLAWYQQKPGQSPKLLIYLASTRESGVPDRFSGSGSGTDFTLTISSLQAEDVAKYYCQQYYDIPWTFGGGTKVEIK | 
 |  |  | 2.09 | 413H9F8-cp3 (antibody, V domains shown, humanized IgG; constant regions not specified) VH: DVQLVESGGGLVQPGGSLRLSCAASGFTFSSFGMHWVRQAPGKGLEWVAYISSGSSPIYYVDKLKGRFTVSRDNAKNSLYLQMNSLRAEDTAVYYCARAGYAVRNALDYWGQGTLVTVSS VL: EIVMTQSPPTLSLSPGERVTLSCKSSQSLLNVGNQKNYLAWYQQKPGQAPRLLIYGASTRESGIPARFSGSGSGTDFTLTISSLQPEDFAVYYCQNDLFYPLTFGGGTKVEIK | % ADCC @ 6.67 nM, NCI-N87-CLDN18.2, FcR-TANK [4]: 11.1%; ADCC EC50, NCI-N87-CLDN18.2, FcR-TANK [4]: 0.22 nM; % specific cytotoxicity @ 6.67 nM, NUGC4-CLDN18.2, PBMC [5]: 30.5%; ADCC EC50, NUGC4-CLDN18.2, PBMC [5]: 5.86 nM
 |  |  | 2.54 | 413H9F8-cp5 (antibody, V domains shown, humanized IgG; constant regions not specified) VH: DVQLVESGGGLVQPGGSLRLSCAASGFTFSSFGMHWVRQAPGKGLEWVAYISSGSSPIYYVDKLKGRFTISRDNAKNSLYLQMNSLRAEDTAVYYCARAGYAVRNALDYWGQGTLVTVSS VL: DIVMTQSPPTLSLSPGERVTLSCKSSQSLLNVGNQKNYLAWYQQKPGQAPRLLIYGASTRESGIPDRFSGSGSGTDFTLTISSLQPEDFAVYYCQNDLFYPLTFGGGTKVEIK | % ADCC @ 6.67 nM, NCI-N87-CLDN18.2, FcR-TANK [4]: 14.1%; ADCC EC50, NCI-N87-CLDN18.2, FcR-TANK [4]: 0.27 nM; % specific cytotoxicity @ 6.67 nM, NUGC4-CLDN18.2, PBMC [5]: 29.6%; ADCC EC50, NUGC4-CLDN18.2, PBMC [5]: 7.75 nM
 |  |  | 2.28 | 413H9F8-cp4 (antibody, V domains shown, humanized IgG; constant regions not specified) VH: EVQLVESGGGLVQPGGSLRLSCAASGFTFSSFGMHWVRQAPGKGLEWVSYISSGSSPIYYVDKLKGRFTISRDNAKNSLYLQMNSLRAEDTAVYYCARAGYAVRNALDYWGQGTLVTVSS VL: DIVMTQSPPTLSLSPGERVTLSCKSSQSLLNVGNQKNYLAWYQQKPGQAPRLLIYGASTRESGIPDRFSGSGSGTDFTLTISSLQPEDFAVYYCQNDLFYPLTFGGGTKVEIK | 
 |  |  | 2.32 | 413H9F8-cp6 (antibody, V domains shown, humanized IgG; constant regions not specified) VH: DVQLVESGGGLVQPGGSLRLSCAASGFTFSSFGMHWVRQAPGKGLEWVAYISSGSSPIYYVDKLKGRFTVSRDNAKNSLYLQMNSLRAEDTAVYYCARAGYAVRNALDYWGQGTLVTVSS VL: DIVMTQSPPTLSLSPGERVTLSCKSSQSLLNVGNQKNYLAWYQQKPGQAPRLLIYGASTRESGIPDRFSGSGSGTDFTLTISSLQPEDFAVYYCQNDLFYPLTFGGGTKVEIK | 
 |  |  | 2.61 | 413H9F8-cp11 (antibody, V domains shown, humanized IgG; constant regions not specified; also called 413H9F8-cp811) VH: DVQLVESGGGLVQPGGSLRLSCAASGFTFSSFGMHWVRQAPGKGLEWVAYISSGSSPIYYVDKLKGRFTISRDNAKNSLYLQMNSLRAEDTAVYYCARAGYAVRNALDYWGQGTLVTVSS VL: DIVMTQSPPTLSLSPGERVTLSCKSSQSLLNVGNQKNYLAWYQQKPGQAPKLLIYGASTRESGIPDRFSGSGSGTDFTLTISSLQPEDFAVYFCQNDLFYPLTFGGGTKVEIK | 

Second part, the binder before the results:

Binder | MFI_SNU620 (@30 ug/ml) [1] [MFI] | MFI_CHO-18.2/CHO-18.1 (@30 ug/ml) [2] | MFI_CHO-18.2/CHO-18.1 (@30 ug/ml) [3] | EC50 [6] [nM] | also measured
hz282-19 (antibody, V domains shown, humanized IgG; constant regions not specified) VH: QVQLQESGPGLVKPSETLSLTCTVSGFSLTSYNVYWIRQPPGKGLEWIGVIWNTGATRYNSALKSRVTISKDTSKSQVSLKLSSVTAADTAVYYCARDSAMPAIPFAYWGQGTLVTVSS VL: DIVMTQSPSSLSASVGDRVTINCKSSQSLFGSVRQKNYLAWYQQKPGKSPKLLIYLASTRESGVPDRFSGSGSGTDFTLTISSLQPEDFAKYYCQQYYDIPWTFGGGTKVEIK | 1310 | 812 | 1010 |  | 
hz282-12 (antibody, V domains shown, humanized IgG; constant regions not specified) VH: QVQLQESGPGLVKPSETLSLTCTVAGFSLTSYNVYWIRQPPGKGLEWIGVIWNTGATRYNSALKSRVTISKDTSKSQVSLKLSSVTAADTAVYYCARDSAMPAIPFAYWGQGTLVTVSS VL: DIQMTQSPSSLSASVGDRVTITCKSSQSLFGSVRQKNYLAWYQQKPGKAPKLLIYLASTRESGVPSRFSGSGSGTDFTLTISSLQPEDFATYYCQQYYDIPWTFGGGTKVEIK | 1220 | 1230 | 1940 |  | 
413H9F8-cp12 (antibody, V domains shown, humanized IgG; constant regions not specified) VH: DVQLVESGGGLVQPGGSLRLSCAASGFTFSSFGMHWVRQAPGKGLEWVAYISSGSSPIYYVDKLKGRFTVSRDNAKNSLYLQMNSLRAEDTAVYYCARAGYAVRNALDYWGQGTLVTVSS VL: DIVMTQSPPTLSLSPGERVTLSCKSSQSLLNVGNQKNYLAWYQQKPGQAPKLLIYGASTRESGIPDRFSGSGSGTDFTLTISSLQPEDFAVYFCQNDLFYPLTFGGGTKVEIK |  |  |  | 3.01 | 
413H9F8-cp10 (antibody, V domains shown, humanized IgG; constant regions not specified) VH: EVQLVESGGGLVQPGGSLRLSCAASGFTFSSFGMHWVRQAPGKGLEWVSYISSGSSPIYYVDKLKGRFTISRDNAKNSLYLQMNSLRAEDTAVYYCARAGYAVRNALDYWGQGTLVTVSS VL: DIVMTQSPPTLSLSPGERVTLSCKSSQSLLNVGNQKNYLAWYQQKPGQAPKLLIYGASTRESGIPDRFSGSGSGTDFTLTISSLQPEDFAVYFCQNDLFYPLTFGGGTKVEIK |  |  |  | 3.69 | 
413H9F8-cp7 (antibody, V domains shown, humanized IgG; constant regions not specified) VH: EVQLVESGGGLVQPGGSLRLSCAASGFTFSSFGMHWVRQAPGKGLEWVSYISSGSSPIYYVDKLKGRFTISRDNAKNSLYLQMNSLRAEDTAVYYCARAGYAVRNALDYWGQGTLVTVSS VL: DIVMTQSPPTLSLSPGERVTLSCKSSQSLLNVGNQKNYLAWYQQKPGQAPKLLIYGASTRESGIPDRFSGSGSGTDFTLTISSLQPEDFAVYYCQNDLFYPLTFGGGTKVEIK |  |  |  | 2.47 | % ADCC @ 6.67 nM, NCI-N87-CLDN18.2, FcR-TANK [4]: 13.3%; ADCC EC50, NCI-N87-CLDN18.2, FcR-TANK [4]: 0.28 nM; % specific cytotoxicity @ 6.67 nM, NUGC4-CLDN18.2, PBMC [5]: 29.7%; ADCC EC50, NUGC4-CLDN18.2, PBMC [5]: 6.68 nM
413H9F8-cp9 (antibody, V domains shown, humanized IgG; constant regions not specified) VH: DVQLVESGGGLVQPGGSLRLSCAASGFTFSSFGMHWVRQAPGKGLEWVAYISSGSSPIYYVDKLKGRFTVSRDNAKNSLYLQMNSLRAEDTAVYYCARAGYAVRNALDYWGQGTLVTVSS VL: DIVMTQSPPTLSLSPGERVTLSCKSSQSLLNVGNQKNYLAWYQQKPGQAPKLLIYGASTRESGIPDRFSGSGSGTDFTLTISSLQPEDFAVYYCQNDLFYPLTFGGGTKVEIK |  |  |  | 2.21 | 
413H9F8-cp8 (antibody, V domains shown, humanized IgG; constant regions not specified) VH: DVQLVESGGGLVQPGGSLRLSCAASGFTFSSFGMHWVRQAPGKGLEWVAYISSGSSPIYYVDKLKGRFTISRDNAKNSLYLQMNSLRAEDTAVYYCARAGYAVRNALDYWGQGTLVTVSS VL: DIVMTQSPPTLSLSPGERVTLSCKSSQSLLNVGNQKNYLAWYQQKPGQAPKLLIYGASTRESGIPDRFSGSGSGTDFTLTISSLQPEDFAVYYCQNDLFYPLTFGGGTKVEIK |  |  |  | 2.72 | % ADCC @ 6.67 nM, NCI-N87-CLDN18.2, FcR-TANK [4]: 13.1%; ADCC EC50, NCI-N87-CLDN18.2, FcR-TANK [4]: 0.27 nM; % specific cytotoxicity @ 6.67 nM, NUGC4-CLDN18.2, PBMC [5]: 27.7%; ADCC EC50, NUGC4-CLDN18.2, PBMC [5]: 8.85 nM
